Laboratory results from PMC5068739 (PLoS ONE, 2016).

Tests used:
AtPYL6 (with TaABI1) = target: T1, AtPYL6 (with TaABI1) (Arabidopsis thaliana, UniProt Q8S8E3); assay: receptor-mediated PP2C inhibition, 4-methylumbelliferyl phosphate fluorescence; assay type: biochemical; settings: ligand 0.1 uM unless otherwise noted, Mn2+, pH 7.9, 30 °C
T1 construct: gene PYL6; recombinant from E. coli, Ni-NTA enriched; the partner PP2C is from wheat; with Protein phosphatase 2C ABI1 (Triticum aestivum)
T1 sequence (Q8S8E3 1-215): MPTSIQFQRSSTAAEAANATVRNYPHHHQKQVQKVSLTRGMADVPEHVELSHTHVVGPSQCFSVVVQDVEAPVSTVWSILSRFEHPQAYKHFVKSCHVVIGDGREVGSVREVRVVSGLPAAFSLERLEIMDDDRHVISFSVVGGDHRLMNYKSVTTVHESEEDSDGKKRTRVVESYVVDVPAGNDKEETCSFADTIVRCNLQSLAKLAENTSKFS
T1 sequence (A5A6P8 1-479 partner): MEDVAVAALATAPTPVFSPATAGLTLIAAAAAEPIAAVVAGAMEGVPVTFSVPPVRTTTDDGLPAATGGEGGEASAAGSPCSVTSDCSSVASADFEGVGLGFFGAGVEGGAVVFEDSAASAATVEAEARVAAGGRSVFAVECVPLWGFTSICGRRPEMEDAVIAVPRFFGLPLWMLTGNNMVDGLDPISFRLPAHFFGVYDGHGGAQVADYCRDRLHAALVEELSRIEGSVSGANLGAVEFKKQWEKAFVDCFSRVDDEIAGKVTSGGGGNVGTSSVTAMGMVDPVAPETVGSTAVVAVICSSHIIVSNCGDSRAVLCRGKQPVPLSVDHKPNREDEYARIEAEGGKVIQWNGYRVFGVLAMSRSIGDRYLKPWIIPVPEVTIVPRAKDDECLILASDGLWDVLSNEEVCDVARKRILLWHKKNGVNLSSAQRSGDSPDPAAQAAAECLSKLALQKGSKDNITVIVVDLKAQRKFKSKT

[1] = target: T2, Bradi1g37810 (with Bradi2g41950) (Brachypodium distachyon, UniProt I1GXY5); assay: as above; assay type: biochemical; settings: ligand 0.1 uM unless otherwise noted, Mn2+, pH 7.9, 30 °C, n = 1 screen
T2 construct: gene LOC100840898; recombinant from E. coli, Ni-NTA enriched; receptor 196 residues; with Protein phosphatase 2C
T2 sequence (I1GXY5 1-196): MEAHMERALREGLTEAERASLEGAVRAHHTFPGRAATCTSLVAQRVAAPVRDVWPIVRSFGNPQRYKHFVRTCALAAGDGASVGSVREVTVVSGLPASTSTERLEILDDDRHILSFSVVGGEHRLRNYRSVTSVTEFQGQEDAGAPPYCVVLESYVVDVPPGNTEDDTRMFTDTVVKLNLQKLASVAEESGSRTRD

TaABI1 (wheat) [2] = target: TaABI1 (wheat)
AtABI1 (A. thaliana) = AtABI1 (A. thaliana) (UniProt P49597)
Sequence of AtABI1 (A. thaliana) (P49597 whole entry): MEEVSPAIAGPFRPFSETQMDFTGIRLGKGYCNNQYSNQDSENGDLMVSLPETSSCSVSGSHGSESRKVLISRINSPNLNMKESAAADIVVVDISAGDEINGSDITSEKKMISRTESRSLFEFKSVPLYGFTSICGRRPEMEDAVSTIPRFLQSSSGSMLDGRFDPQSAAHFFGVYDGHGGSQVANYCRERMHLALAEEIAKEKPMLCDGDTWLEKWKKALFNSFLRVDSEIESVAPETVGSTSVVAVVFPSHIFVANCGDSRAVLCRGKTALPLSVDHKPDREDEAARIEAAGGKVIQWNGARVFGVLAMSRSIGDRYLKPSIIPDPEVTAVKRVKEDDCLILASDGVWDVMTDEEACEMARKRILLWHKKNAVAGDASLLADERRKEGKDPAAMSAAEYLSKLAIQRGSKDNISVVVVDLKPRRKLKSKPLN

TaABI1 (wheat) [3] = target: TaABI1 (wheat); remark: listed apart in the source
[4] = target: Bradi2g41950 (B. distachyon)

Compound: CO[C@]1(/C=C/C(C)=C\C(=O)O)C(C)=CC(=O)CC1(C)C [PBI352]
- % inhibition of PP2C (AtPYL6 (with TaABI1)): the three A. thaliana receptors against the Ta_ABI1 PP2C were plotted
- % inhibition of PP2C [1]: subfamily III receptor Bd1g37810 is similar to that of the subfamily II, Ta_PYL2DS_FL

Compound: Ta_PYL2DS_FL (receptor)
- TaABI1 phosphatase activity (4-methylumbelliferyl phosphate) with the receptor, on addition of ABA (Figure B in S2 File) (% reduction of phosphatase activity) (TaABI1 (wheat) [2]): 90
- PP2C phosphatase activity, receptor to PP2C 10:1, with 0.1 uM PBI352 (Fig 2B) (% decrease in PP2C activity) (AtABI1 (A. thaliana)): 30
- PP2C phosphatase activity, receptor to PP2C 10:1, with 0.1 uM PBI354 (Fig 2C) (% decrease in PP2C activity) (AtABI1 (A. thaliana)): 0
- PP2C phosphatase activity, receptor to PP2C 10:1, with 0.1 uM PBI352 (Fig 2B) (% decrease in PP2C activity) (TaABI1 (wheat) [3]): 30
- PP2C phosphatase activity, receptor to PP2C 10:1, with 0.1 uM PBI354 (Fig 2C) (% decrease in PP2C activity) (TaABI1 (wheat) [3]): 0

Compound: Bradi2g32250 (receptor)
- Bradi2g41950 phosphatase activity with receptor and PBI352 (Figure C in S2 File; n = 1) (% inhibition of PP2C) [4]: 90

Compound: Bradi3g09580 (receptor)
- Bradi2g41950 phosphatase activity with receptor and PBI352 (Figure C in S2 File; n = 1) (% inhibition of PP2C) [4]: 90
